Laboratory results: PMC6561319, “Proteomic Profiling, Transcription Factor Modeling, and Genomics of Evolved Tolerant Strains Elucidate Mechanisms of Vanillin Toxicity in Escherichia coli” (mSystems, 2019)

Legend:
purified protein [1] = substrate: COc1cc(C=O)ccc1O; assay: purified protein; type: biochemical, Escherichia coli; conditions: 0.1 mM NADPH, 100 mM phosphate pH 7.4, 37°C
purified protein [2] = substrate: O=C(O)CC(=O)C(=O)O; assay: purified protein; type: biochemical, Escherichia coli; conditions: 67 μM acetyl-CoA (fixed), 0.2 mM DTNB, 100 mM Tris-HCl pH 8, 37°C

B1: YqhD (Escherichia coli K-12) (protein)
chain: MNNFNLHTPTRILFGKGAIAGLREQIPHDARVLITYGGGSVKKTGVLDQVLDALKGMDVLEFGGIEPNPAYETLMNAVKLVREQKVTFLLAVGGGSVLDGTKFIAAAANYPENIDPWHILQTGGKEIKSAIPMGCVLTLPATGSESNAGAVISRKTTGDKQAFHSAHVQPVFAVLDPVYTYTLPPRQVANGVVDAFVHTVEQYVTKPVDAKIQDRFAEGILLTLIEDGPKALKEPENYDVRANVMWAATQALNGLIGAGVPQDWATHMLGHELTAMHGLDHAQTLAIVLPALWNEKRDTKRAKLLQYAERVWNITEGSDDERIDAAIAATRNFFEQLGVPTHLSDYGLDGSSIPALLKKLEEHGMTQLGENHDITLDVSRRIYEAAR
Purified protein [1]
  Km: 270 ± 40 µM
  kcat: 0.103 s⁻¹

B2: GltA (citrate synthase) (Escherichia coli K-12) (protein)
chain: MADTKAKLTLNGDTAVELDVLKGTLGQDVIDIRTLGSKGVFTFDPGFTSTASCESKITFIDGDEGILLHRGFPIDQLATDSNYLEVCYILLNGEKPTQEQYDEFKTTVTRHTMIHEQITRLFHAFRRDSHPMAVMCGITGALAAFYHDSLDVNNPRHREIAAFRLLSKMPTMAAMCYKYSIGQPFVYPRNDLSYAGNFLNMMFSTPCEPYEVNPILERAMDRILILHADHEQNASTSTVRTAGSSGANPFACIAAGIASLWGPAHGGANEAALKMLEEISSVKHIPEFVRRAKDKNDSFRLMGFGHRVYKNYDPRATVMRETCHEVLKELGTKDDLLEVAMELENIALNDPYFIEKKLYPNVDFYSGIILKAMGIPSSMFTVIFAMARTVGWIAHWSEMHSDGMKIARPRQLYTGYEKRDFKSDIKR
notes: hexamer
Purified protein [2]
  Km: 154 ± 25 µM
  Vmax: 4.8 µmol/min/mg
  kcat: 3.87 ± 0.233 s⁻¹
  kcat/Km: 25100 ± 1470 M⁻¹ s⁻¹

B3: DkgA (Escherichia coli K-12) (protein)
chain: ANPTVIKLQDGNVMPQLGLGVWQASNEEVITAIQKALEVGYRSIDTAAAYKNEEGVGKALKNASVNREELFITTKLWNDDHKRPREALLDSLKKLQLDYIDLYLMHWPVPAIDHYVEAWKGMIELQKEGLIKSIGVCNFQIHHLQRLIDETGVTPVINQIELHPLMQQRQLHAWNATHKIQTESWSPLAQGGKGVFDQKVIRDLADKYGKTPAQIVIRWHLDSGLVVIPKSVTPSRIAENFDVWDFRLDKDELGEIAKLDQGKRLGPDPDQFGG
Purified protein [1]
  Km: 200 ± 80 µM
  kcat: 0.0467 s⁻¹
